Laboratory results published in IntAct's records for PubMed 34039996.

B1: Neuropilin-1 (Mus musculus), P97333 (parent)
chain: MERGLPLLCATLALALALAGAFRSDKCGGTIKIENPGYLTSPGYPHSYHPSEKCEWLIQAPEPYQRIMINFNPHFDLEDRDCKYDYVEVIDGENEGGRLWGKFCGKIAPSPVVSSGPFLFIKFVSDYETHGAGFSIRYEIFKRGPECSQNYTAPTGVIKSPGFPEKYPNSLECTYIIFAPKMSEIILEFESFDLEQDSNPPGGMFCRYDRLEIWDGFPEVGPHIGRYCGQKTPGRIRSSSGVLSMVFYTDSAIAKEGFSANYSVLQSSISEDFKCMEALGMESGEIHSDQITASSQYGTNWSVERSRLNYPENGWTPGEDSYKEWIQVDLGLLRFVTAVGTQGAISKETKKKYYVKTYRVDISSNGEDWISLKEGNKAIIFQGNTNPTDVVLGVFSKPLITRFVRIKPVSWETGISMRFEVYGCKITDYPCSGMLGMVSGLISDSQITASNQADRNWMPENIRLVTSRTGWALPPSPHPYTNEWLQVDLGDEKIVRGVIIQGGKHRENKVFMRKFKIAYSNNGSDWKTIMDDSKRKAKSFEGNNNYDTPELRTFSPLSTRFIRIYPERATHSGLGLRMELLGCEVEAPTAGPTTPNGNPVDECDDDQANCHSGTGDDFQLTGGTTVLATEKPTIIDSTIQSEFPTYGFNCEFGWGSHKTFCHWEHDSHAQLRWSVLTSKTGPIQDHTGDGNFIYSQADENQKGKVARLVSPVVYSQSSAHCMTFWYHMSGSHVGTLRVKLRYQKPEEYDQLVWMVVGHQGDHWKEGRVLLHKSLKLYQVIFEGEIGKGNLGGIAVDDISINNHISQEDCAKPTDLDKKNTEIKIDETGSTPGYEGEGEGDKNISRKPGNVLKTLDPILITIIAMSALGVLLGAVCGVVLYCACWHNGMSERNLSALENYNFELVDGVKLKKDKLNPQSNYSEA
B2: Plexin-A4 (Mus musculus), Q80UG2 (parent)
chain: MKAMPWNWTCLLSHLLVVGMGSSTLLPRQPPQLSQKPSFVTFRGEPAEGFNHLVVDERTGHIYLGAVNRIYKLSSDLKVLVTHQTGPDEDNPKCYPPRIVQTCNEPLASTNNVNKMLLIDYKENRLIACGSLYQGICKLLRLEDLFKLGEPFHKKEHYLSGVNESGSVFGVIVSYSNFDDKLFIATAVDGKPEYFPTISSRKLTKNSEADGMFAYVFHDEFVASMIKIPSDTFTVIPDFDIYYVYGFSSGNFVYFLTLQPEMVSPPGSTTKEQVYTSKLVRLCKEDTAFNSYVEVPIGCERNGVEYRLLQAAYLSKAGAVLGRTLGVRPDDDLLFTVFSKGQKRKMKSLDESALCIFILKQINDRIKDRLQSCYRGEGTLDLAWLKVKDIPCSSALLTIDDNFCGLDMNAPLGVSEMVRGIPVFTEDRDRMTSVIAYVYKNHSLAFVGTKSGKLKKIRVDGPKGNALQYETVQVVDSGPVLRDMAFSKDHEQLYIMSERQLTRVPVESCGQYRSCGECLGSGDPHCGWCVLHNTCTRKERCERSREPRRFASEMKQCVRLTVHPNNISVSQYNVLLVLETYNVPELSAGVNCTFEDLSEMDGLVIGNQIQCYSPAAKEVPRIITENGDHHVVQLQLKSKETGMTFASTSFVFYNCSVHNSCLSCVESPYRCHWCKYRHVCTHDPNTCSFQEGRVKLPEDCPQLLRVDKILVPVEVIKPITLKAKNLPQPQSGQRGYECILNIQGIEQRVPALRFNSSSVQCQNTSYSYEGMEINNLPVELTVVWNGHFNIDNPAQNKVYLYKCGAMRESCGLCLKADPDFECGWCQSPGQCTLRQHCPAHESRWLELSGANSKCTNPRITEIIPVTGPREGGTKVTIRGENLGLEFRDIASHVKVAGVECSPLVDGYIPAEQIVCEMGEAKPSQHAGFVEICVAVCRPEFMARSSQLYYFMTLTLADLKPNRGPMSGGTQVTITGTNLNAGSNVVVMFGSQPCLFHRRSPSYIICNTTSSEEVLDMKVTVQVDRARIRQDLVFQYVEDPTIVRIEPEWSIVSGNTPIAVWGTHLDLIQNPQIRAKHGGKEHINICEVLNATEMTCQAPALALGPDHQSDLTERPEEFGFILDNVQSLLILNKTNFTYYPNPVFEAFSPSGILELKPGTPIILKGKNLIPPVAGGNVKLNYTVLVGEKPCTVTVSDVQLLCESPNLIGRHKVMARVGGMEYSPGMVYIAPDSPLSLPAIVSIAVAGGLLIIFIVAVLIAYKRKSRESDLTLKRLQMQMDNLESRVALECKEAFAELQTDIHELTSDLDGAGIPFLDYRTYTMRVLFPGIEDHPVLRDLEVPGYRQERVEKGLKLFAQLINNKVFLLSFIRTLESQRSFSMRDRGNVASLIMTVLQSKLEYATDVLKQLLADLIDKNLESKNHPKLLLRRTESVAEKMLTNWFTFLLYKFLKECAGEPLFSLFCAIKQQMEKGPIDAITGEARYSLSEDKLIRQQIEYKTLVLSCVSPDNVNSPEVPVKILNCDTITQVKEKILDAIFKNVPCSHRPKAADMDLEWRQGSGARMILQDEDITTKIENDWKRLNTVAHYQVPDGSVVALVSKQVTAYNAVNNSTVSRTSASKYENMIRYTGSPDSLRSRTPMITPDLESGVKLWHLVKNHEHGDQKEGDRGSKMVSEIYLTRLLATKGTLQKFVDDLFETIFSTAHRGSALPLAIKYMFDFLDEQADKHGIHDPHVRHTWKSNCLPLRFWVNMIKNPQFVFDIHKNSITDACLSVVAQTFMDSCSTSEHRLGKDSPSNKLLYAKDIPSYKNWVERYYSDIGKMPAISDQDMNAYLAEQSRMHMNEFNTMSALSEIFSYVGKYSEEILGPLDHDDQCGKQKLAYKLEQVITLMSLDS

Variants of: B1
Settings: with plxa4_mouse Plxna4, Q80UG2

Row | Variant | effect of a mutation on the interaction
1 | S251E | with no effect
2 | A252E | with no effect
3 | H74A | with no effect
4 | E128R | with no effect

Variants of: B2
Settings: with nrp1_mouse Nrp1, P97333

Row | Variant | effect of a mutation on the interaction
5 | K343E | with no effect
